We go through twelve molecules from patent US10640563B2, “Anti-B7-H3 antibodies and antibody drug conjugates” (AbbVie Inc., priority 2016, dated 2020).

Series [1] is described as follows: Aggregation of conjugates by SEC. Type of series: physicochemical. For orientation: In gel filtration, larger molecules generally elute earlier.
In the next series the test system is HCC38 cell line. Description: Cell cytotoxicity of ADCs in HCC38 cell line. Type of series: cell-based. The settings on record: CZ conjugates. As for the experimental part:
The humanization of chAb18 generated 10 variants (described above in Table 9) that retained binding to human and cyno B7-H3 as assessed by FACS (the method of which is described above in Example 6). These variants were further characterized for binding by SPR and were successfully conjugated to the Bcl-xL inhibitor synthon CZ using Method A (described above) and assessed for cell cytotoxicity as described in Example 7. The parental chAb18 from which the variants were derived was also tested as a comparator. All humanized variants had similar binding properties as assessed by biacore, and retained binding activity to cell surface expressed as conjugates with the CZ synthon. The cytotoxicity of all of the variants as CZ synthons were similar to the chAb18 from which they were derived.
Humanized chAb18 variants were conjugated to the CZ synthon and tested for cytotoxicity in HCC38 cell line.

In series [2] the target is T1, soluble ECD of human B7-H3 (Homo sapiens, UniProt Q5ZPR3).
T1 construct: His tag (6xHis) (C); made in house
T1 sequence (Q5ZPR3 with tags, fused parts or gaps): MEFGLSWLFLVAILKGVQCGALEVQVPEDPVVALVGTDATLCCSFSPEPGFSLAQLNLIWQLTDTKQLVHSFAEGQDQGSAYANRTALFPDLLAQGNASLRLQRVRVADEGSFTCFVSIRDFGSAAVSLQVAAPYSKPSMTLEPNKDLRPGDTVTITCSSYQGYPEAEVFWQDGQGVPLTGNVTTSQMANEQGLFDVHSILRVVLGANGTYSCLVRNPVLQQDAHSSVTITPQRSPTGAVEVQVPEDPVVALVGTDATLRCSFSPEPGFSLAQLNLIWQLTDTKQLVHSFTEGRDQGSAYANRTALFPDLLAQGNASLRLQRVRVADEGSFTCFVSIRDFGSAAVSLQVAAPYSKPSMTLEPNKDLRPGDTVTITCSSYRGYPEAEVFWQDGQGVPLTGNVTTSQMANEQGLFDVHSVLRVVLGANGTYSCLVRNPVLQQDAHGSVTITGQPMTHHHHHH
The experiment in a line: Biacore T200 SPR binding kinetics, mAb capture. The note with it: Biacore T200, Fc capture of mAb, B7-H3 ECD as analyte, 1:1 binding model. As for the experimental part: The binding affinity of the purified anti-B7-H3 monoclonal antibodies was determined by surface […]. […] The binding kinetics were derived from SPR measurements using a Biacore T200 instrument and a mAb capture approach (as described in the materials and methods below).
Biacore T200 SPR instruments were used to measure the binding kinetics of human B7-H3 (analyte) binding to various mAbs (ligands). The assay format was Fc-based capture via immobilized anti-mouse (Fc) (Pierce 31170) or immobilized anti-human (Fc) (Pierce 31125). A standard amine coupling protocol was employed to immobilize the capture reagents via primary amines to the carboxy-methyl (CM) dextran surface of CM5 sensorchips (Biacore); capture antibodies were coupled to a level of approximately 5000 RU. For binding kinetic measurements the assay buffer was HBS-EP+ (Biacore): 10 mM Hepes, pH7.4, 150 mM NaCl, 3 mM EDTA, 0.05% polysorbate 20. During the assay, all measurements were referenced against the capture surface alone. Each assay cycle consisted of the following steps: 1) Capture of ligand to approximately 50 RU; 2) Analyte injection over both reference and test surface, 240 μL at 80 μL/min, after which the dissociation was monitored for 900 seconds at 80 μL/min; 3) Regeneration of capture surface with low pH glycine. For kinetic determinations analyte injections were 3-point, 9-fold dilution series of 900 nM, 100 nM and 11.11 nM, buffer only injections were included for secondary referencing. Data were processed and fit to a 1:1 binding model using Biacore T200 Evaluation Software to determine the binding kinetic rate constants, ka (on-rate) and kd (off-rate), and the equilibrium dissociation constant (affinity, KD).

Series [3] has as its system soluble ECD of cyno B7-H3. Description: Biacore T200 SPR binding kinetics, mAb capture. The note with it: Biacore T200, Fc capture of mAb, B7-H3 ECD as analyte, 1:1 binding model. Further details: species or system cynomolgus monkey. On the technique in general: In SPR one partner is held on a chip, and binding of the other changes the refractive index at the surface.
Setting [4] is: Table 14, CZ conjugates of Ab3 variants.
Setting [5] is: Table 10, CZ conjugates of Ab18 variants.

soluble ECD of cyno B7-H3, sequence (as listed by the source): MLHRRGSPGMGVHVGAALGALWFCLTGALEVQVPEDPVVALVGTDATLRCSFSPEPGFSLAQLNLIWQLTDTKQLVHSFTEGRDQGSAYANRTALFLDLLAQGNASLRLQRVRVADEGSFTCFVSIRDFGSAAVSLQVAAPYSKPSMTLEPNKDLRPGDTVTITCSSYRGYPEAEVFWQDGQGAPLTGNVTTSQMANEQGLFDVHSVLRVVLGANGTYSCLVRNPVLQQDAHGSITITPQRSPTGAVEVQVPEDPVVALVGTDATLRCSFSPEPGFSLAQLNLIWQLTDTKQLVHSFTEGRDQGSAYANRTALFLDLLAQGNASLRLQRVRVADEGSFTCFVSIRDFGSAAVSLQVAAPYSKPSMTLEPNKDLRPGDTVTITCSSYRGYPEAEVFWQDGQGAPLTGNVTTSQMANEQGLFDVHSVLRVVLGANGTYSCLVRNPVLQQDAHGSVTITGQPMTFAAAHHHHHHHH

B1: huAb3v3-CZ (conjugate)
VH: EVQLVQSGAEVKKPGSSVKVSCKASGYTFSSYWMHWVRQAPGQGLEWIGLIHPDSGSTNYNEMFKNRATLTVDRSTSTAYVELSSLRSEDTAVYFCAGGGRLYFDYWGQGTTVTVSS
VL: DVVMTQSPLSLPVTPGEPASISCRSSQSLVHSNGDTYLRWYLQKPGQSPQLLIYKVSNRFSGVPDRFSGSGSGTDFTLKISRVEAEDVGVYFCSQSTHVPYTFGGGTKVEIK
Broadly, the IC50 is the concentration at which inhibition is half-maximal. Regarding B1, the “% agg by SEC” value in series [1] (setting [4]) is 2.5%. Further, the 50% inhibitory concentration (IC50) in the series on HCC38 cell line (Table 14) was 9.22 nM.

B2: huAb3v5-CZ (conjugate)
VH: EVQLVQSGAEVKKPGSSVKVSCKASGYTFSSYWMHWVRQAPGQGLEWIGLIHPDSGSTNYNEMFKNRATLTVDRSTSTAYMELSSLRSEDTAVYYCAGGGRLYFDYWGQGTTVTVSS
VL: DVVMTQSPLSLPVTPGEPASISCRSSQSLVHSNGDTYLRWYLQKPGQSPQLLIYKVSNRFSGVPDRFSGSGSGTDFTLKISRVEAEDVGVYYCSQSTHVPYTFGGGTKVEIK
Take B2: the “% agg by SEC” value in series [1] (setting [4]) was found to be 5.9%. In the series on HCC38 cell line (Table 14), this molecule registered a 50% inhibitory concentration (IC50) of 0.17 nM.

B3: Ab16 (antibody, V domains shown)
VH: EVKLLESGGGLVQPGGSLKLSCAASGFDFSRYWMSWVRQAPGKGLEWIGEINPDSSTINYTPSLKDKFIISRDNAKNTLYLQMSKVRSEDTALYYCARPGFGNYIYAMDYWGQGTSVTVSS
VL: DIQMTQTTSSLSASLGDRVTINCRASQDISNFLNWYQQKPDGTVKLLIYYTSRLYLGVPSRFSGSGSGTDYSLTISNLEQEDIATYFCQQGNTLPPTFGGGTKLEIK
Regarding B3, in series [2], the “huB7-H3 ka” value amounted to 140000 M⁻¹ s⁻¹ and the “huB7-H3 kd” value worked out at 0.0032 s⁻¹. In addition, in series [3], the “cynoB7-H3 ka” value was 750000 M⁻¹ s⁻¹ and the “cynoB7-H3 kd” value is 0.0056 s⁻¹.

B4: Ab17 (antibody, V domains shown)
VH: EVKLVESGGGLVQPGGSLKLSCAASGFTFSSYIMSWVRQTPEKRLEWVASIVSSNITYYPDSMKGRFTISRDNARNILYLQMSSLKSEDTAMYYCARSGTRAWFAYWGQGTLVTVSA
VL: DIVLTQSPASLAVSLGQRATISCRASKSVSTSAYSYMHWYQQKPGQPPKLLIYLASNLESGVPARFSGSGSGTDFTLNIHPVEEEDAATYYCQHSRELPYTFGGGTKLEIK
On to B4, for which, in series [2], the “huB7-H3 ka” value came out at 540000 M⁻¹ s⁻¹ and the “huB7-H3 kd” value stood at 1.9e-05 s⁻¹. Also, in series [3], the “cynoB7-H3 ka” value was determined as 510000 M⁻¹ s⁻¹ and the “cynoB7-H3 kd” value is 1e-05 s⁻¹.

B5: Ab13 (antibody, V domains shown)
VH: DVQLQESGPDLVKPSQSLSLTCTVTGYSITSGYSWHWIRQFPGNKLEWMGYIHSSGSTNYNPSLKSRISINRDTSKNQFFLQLNSVTTEDTATYYCAGYDDYFEYWGQGTTLTVSS
VL: DIVMTQSQKFMSTSVGDRVSVTCKASQNVGFNVAWYQQKPGQSPKALIYSASYRYSGVPDRFTGSGSGTDFTLTISNVQSEDLAEYFCQQYNSYPFTFGSGTKLEIK
Consider B5, for which, in series [2], the “huB7-H3 ka” value is 330000 M⁻¹ s⁻¹ and the “huB7-H3 kd” value worked out at 0.0058 s⁻¹. In addition, in series [3], the “cynoB7-H3 ka” value is 440000 M⁻¹ s⁻¹ and the “cynoB7-H3 kd” value turned out to be 0.0037 s⁻¹.

B6: huAb18v2-CZ (conjugate)
VH: EVQLVQSGAEVKKPGSSVKVSCKASGYSFTSYTIHWVRQAPGQGLEWMGYINPNSRNTDYAQKFQGRVTLTADKSTSTAYMELSSLRSEDTAVYYCARYSGSTPYWYFDVWGQGTTVTVSS
VL: DIQLTQSPSFLSASVGDRVTITCRASSSVSYMNWYQQKPGKAPKLLIYATSNLASGVPSRFSGSGSGTEFTLTISSLQPEDFATYYCQQWSSNPLTFGQGTKLEIK
Consider B6, for which, in series [1] (setting [5]), the “% agg by SEC” value is 3.3%.

B7: huAb18v10-CZ (conjugate)
VH: EVQLVQSGAEVKKPGSSVKVSCKASGYSFTSYTIHWVRQAPGQGLEWMGYINPNSRNTDYAQKFQGRVTLTADKSTSTAYMELSSLRSEDTAVYYCARYSGSTPYWYFDVWGQGTTVTVSS
VL: DIQLTQSPSFLSASVGDRVTITCRASSSVSYMNWYQQKPGKAPKPWIYATSNLASGVPSRFSVSGSGTEHTLTISSLQPEDFATYYCQQWSSNPLTFGQGTKLEIK
B7: the “% agg by SEC” value in series [1] (setting [5]) turned out to be 3.2%.

B8: huAb18v5-CZ (conjugate)
VH: EVQLVQSGAEVKKPGSSVKVSCKASGYSFTSYTIHWVRQAPGQGLEWMGYINPNSRNTDYNQKFKDRVTITADKSTSTAYMELSSLRSEDTAVYYCARYSGSTPYWYFDVWGQGTTVTVSS
VL: EIVLTQSPDFQSVTPKEKVTITCRASSSVSYMNWYQQKPDQSPKLLIKATSNLASGVPSRFSGSGSGTDFTLTINSLEAEDAATYYCQQWSSNPLTFGQGTKLEIK
As for B8, the “% agg by SEC” value in series [1] (setting [5]) came out at 4.2%. Further, in the series with HCC38 cell line (Table 10), inhibition was half-maximal at 0.12 nM (IC50).

B9: huAb18v8-CZ (conjugate)
VH: EVQLVQSGAEVKKPGSSVKVSCKASGYSFTSYTIHWVRQAPGQGLEWIGYINPNSRNTDYNQKFKDRTTLTADRSTSTAYMELSSLRSEDTAVYYCARYSGSTPYWYFDVWGQGTTVTVSS
VL: DIQLTQSPSFLSASVGDRVTITCRASSSVSYMNWYQQKPGKAPKPWIYATSNLASGVPSRFSVSGSGTEHTLTISSLQPEDFATYYCQQWSSNPLTFGQGTKLEIK
Regarding B9, the “% agg by SEC” value in series [1] (setting [5]) is given as 3.5%. Also, the concentration for half-maximal inhibition (IC50) in the series with HCC38 cell line (Table 10) stood at 1.3 nM.

B10: Ab14 (antibody, V domains shown)
VH: EVKLVESGGGLVKPGGSLKLSCAASGFTFSSYGMSWVRQTPEKRLEWVATISGGGTNTYYPDSVEGRFTISRDNAKNFLYLQMSSLRSEDTALYYCARHYGSQTMDYWGQGTSVTVSS
VL: DIQMTQSPASLSASVGETVTITCRTSGNIHNYLTWYQQKQGKSPQLLVYNAKTLADGVPSRFSGSGSGTQFSLKINSLQPEDFGSYYCQHFWSIMWTFGGGTKLEIK
For the molecule B10, in series [2], the “huB7-H3 ka” value is 110000 M⁻¹ s⁻¹ and the “huB7-H3 kd” value is 0.0014 s⁻¹. For the same molecule, in series [3], the “cynoB7-H3 ka” value came out at 690000 M⁻¹ s⁻¹ and the “cynoB7-H3 kd” value was 0.003 s⁻¹.

B11: Ab10 (antibody, V domains shown)
VH: DVQLQESGPGLVKPSQSLSLTCTVTGYSITSDYAWNWIRQFPGNRLEWMGHINYSGITNYNPSLKSRISITRDTSKNQFFLQLYSVTTEDTATYFCARRSLFYYYGSSLYAMDYWGQGTSVTVSS
VL: DVVMTQSPFSLPVSLGDQASISCRSSQSLVHSNGNTYLHWYLQKPGQSPKLLIYKVSNRFSGVPDRFSGSGSGTDFTLKISRVEAEDLGVYFCSQSTHVPWTFGGGTKLEIK
Regarding B11, in series [2], the “huB7-H3 ka” value was 41000 M⁻¹ s⁻¹ and the “huB7-H3 kd” value is 0.00019 s⁻¹. Besides, in series [3], the “cynoB7-H3 ka” value came to 200000 M⁻¹ s⁻¹ and the “cynoB7-H3 kd” value is 0.0042 s⁻¹.

B12: Ab2 (antibody, V domains shown)
VH: QVQLQQPGAELVKPGASVKLSCKASGYTFTSYWMHWVKQRPGQGLEWIGMIHPDSGTTNYNEKFRSKATLTVDKSSSTAYMQLSSLTSEDSAVYYCAVYYGSTYWYFDVWGTGTTVTVSS
VL: DVVMTQTPLSLPVSLGDQAYISCRSSQSLVHINGNTYLHWYRQKPGQSPKLLIYKVSNRFSGVPDRFSGSGSGTDFTLKISRVEAEDLGVYFCSQSTHFPFTFGSGTKLEIK
As for B12, in series [2], the “huB7-H3 ka” value was determined as 120000 M⁻¹ s⁻¹ and the “huB7-H3 kd” value came out at 0.0029 s⁻¹. In series [3], the “cynoB7-H3 ka” value came out at 230000 M⁻¹ s⁻¹ and the “cynoB7-H3 kd” value was found to be 0.011 s⁻¹.
